The nanobody polyreactivity screen of Harvey et al. (2022)

Test: yeast display, Sf9 membrane polyspecificity reagent, FACS + sequencing; frameworks hold sequencing errors
How it was run: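 Sorting gates, low and high (top ~1%), were placed on anti-HA fluorescence to track expression and on streptavidin fluorescence to track reagent binding. A clone's polyreactivity label is taken from the gate it came out of. The reagent was 10% biotinylated, detergent-solubilized Sf9 membrane, applied for 1 hour at 4 °C to galactose-induced yeast display cells.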

Row | Sequence | polyreactivity (PSR sort gate)
1 | QVQLVESGGGLVQAGGSLRLSCAASGRTFKLNAMGWYRQAPGKERELVAAISRNGGSTYYADSVKGRFTISRDNAKNTVYLQMNSLKPEDTAVYYCAAVRHGVSLAGYYWGQGTQVTVSS | high polyreactivity
2 | QVQLVESGGGLVQAGGSLRLSCAASGRTFKLYGMGWYRQAPVKEREFVAAITQGGGSTFYADSVKGRFTISRDNSKNTVYLQMNSLKPEDTAVYYCAARTQIFSRYRGFYSWGQGTQVTVSS | high polyreactivity
3 | QVQLVESGGGLVQAGGSLRLSCAASGRTFKRNGMGWYRQAPGKERELVAAIRNTGSTKYADSVKGRFTISRDNAKNTVYLQMNSLKPEDTAVYYCNARVYEAQTYYYWGQGTQVTVSS | high polyreactivity
4 | QVQLVESGGGLVQAGGSLRLSCAASGRTFKRNPMGWYRQAPGKERELVAAISGTGSTNYADSVKGRFTISRDNAKNTVYLQMNSLKPEDSAVYYCNADIYSYRYPYVYWGQGTQVTVSS | low polyreactivity
5 | QVQLVESGGGLVQAGGSLRLSCAASGRTFKRYAMGWYRQAPGKERELVAAITRSGGSTYYADSVKGRFTISRDNAKNTVYLQMNSLKPEDTAVYYCATRSYNNELEYWGQGTQVTVSS | high polyreactivity
6 | QVQLVESGGGLVQAGGSLRLSCAASGRTFKSYAMGWYRQAPGKERELVAAISSSGGRTFYADSVKGRFTISRDNAKNTVYLQMNSLKPEDTAVYYCNARYCYRYGGYKPVGGYYWGQGTQVTVSS | high polyreactivity
7 | QVQLVESGGGLVQAGGSLRLSCAASGRTFKSYSMGWYRQAPGKERELVAAISWSGGSTYYADSVKGRFTISRDNAKNTVYLQMNSLKPEDTAVYYCAKRGYASGSKWDYGYWGQGTQVTVSS | high polyreactivity
8 | QVQLVESGGGLVQAGGSLRLSCAASGRTFKTYAMGWYRQAPGKERELVAAIDSGGNTYADSVKGRFTISRDNAKNTVYLQMNSLKPEDTAVYYCAVDGGEFSSYGYWGHGTQVTVSS | low polyreactivity
9 | QVQLVESGGGLVQAGGSLRLSCAASGRTFKWYAMGWYRQAPGKERELVAGISRGAGRTYYADSVKGRFTISRDNAKNTVYLQMNSLKPEDTAVYYCAAVPSYHSTSPFYYWGQGTQVTVSS | high polyreactivity
10 | QVQLVESGGGLVQAGGSLRLSCAASGRTFKWYPMGWYRQATGKERELVAGITSTGTTSYADSVKGRFTISRDNAKNTVYLQMNSLKPEDTAVYYCNTYYRWWKYDYWGQGTQVTVSS | high polyreactivity
11 | QVQLVESGGGLVQAGGSLRLSCAASGRTFKYNTMGWYRQAPGKEREFVAAINWSGGSTYSAASVKGRFTISRDNAKNTVYLQMNSLKPEDTAVYYCAARRVYLGEYDYWGQGTQVTVSS | high polyreactivity
12 | QVQLVESGGGLVQAGGSLRLSCAASGRTFKYYAMGWYRQAPGKERELVAAISWNGGSTYYADSVKGRFTISRDNAKNTVYLQMNSLKPEDTAVYYCAARYYAAGIGSRYDYWGQGTQVTVSS | high polyreactivity
13 | QVQLVESGGGLVQAGGSLRLSCAASGRTFKYYAMGWYRQAPGKERELVASISRSGGITYYADSVKGRFTISRDNAKNTVYLQMNSLKPEDTAVYYCAARYSVRPISIYPFDFGYWGQGTQVTVSS | low polyreactivity
14 | QVQLVESGGGLVQAGGSLRLSCAASGRTFKYYAMGWYRQAPGKERELVATISFRGGSTYYADSVKGRFTISRDNAKNTVYLQMNSLKPEDTAVYYCAATTPYYTPRRRNDYWGQGTQVTVSS | high polyreactivity
15 | QVQLVESGGGLVQAGGSLRLSCAASGRTFKYYAMGWYRQAPGKERELVATITWSGTSTNYADSVKGRFTISRDNAKNTVYLQMNSLKPEDTAVYYCAARSKRRNYDYWGQGTQVTVSS | high polyreactivity
16 | QVQLVESGGGLVQAGGSLRLSCAASGRTFLAYTMGWYRQAPGKEMELVAAISTPGGSTYYADSVKGRFTISRDNAKNTVYIQMNSLKPEDTAVYYCAAADSTWFDWGNYWYYYWGQGTQVTVSS | low polyreactivity
17 | QVQLVESGGGLVQAGGSLRLSCAASGRTFLENAMGWYRQAPGKERELVAAISWRGGNTHYADSVKGRFTISRDNAKNTVYLQMNSLKPEDTAVYYCNAVNYRNKYDYWGQGTQVTVSS | high polyreactivity
18 | QVQLVESGGGLVQAGGSLRLSCAASGRTFLINAMGWYRQAPGKERELVAAINYGGGSTYYADSVKGRFTISRDNAKNTVYLQMKSLKPEDTAVYYCSTEYYDTYVGSYSYWGAKYGSWGQGTQVTVSS | low polyreactivity
19 | QVQLVESGGGLVQAGGSLRLSCAASGRTFLLYAMGWYRQAPGKERELVAAISRGGGSTFYADTVKGRFTLSRDNAKNTVYLQRNSLKPDDTAVYYCAAYGRYYYIYDYCGQGTQVTVSS | high polyreactivity
20 | QVQLVESGGGLVQAGGSLRLSCAASGRTFLQYGMGWYRQAPGKERELVAAITTSGGDTYYADSVKGRFTISRDNAKNTVYLQMNSQKPEDTAVYYCNAEPRYGTYDYWGQGTQVTVSA | low polyreactivity
21 | QVQLVESGGGLVQAGGSLRLSCAASGRTFLRYAMGWSRQAPGKERELVAAISSRGGRTYYADSVKGRFTISRDNAKNTVYLQMNILKPEDTAVYYCNARYSPRTGRGRHVTYYYWGQGTQVTVSS | high polyreactivity
22 | QVQLVESGGGLVQAGGSLRLSCAASGRTFLSYMGWYRQAPGKERELVAISRSGTSTYYADSVKGRFTISRDNAKNTVYLQMNSLKPEDTAVYYCAATRRYPQYRGYDYWGQGTQVTVSS | high polyreactivity

Row | Sequence | polyreactivity (PSR sort gate)
23 | QVQLVESGGGLVQAGGSLRLSCAASGRTFLTNPMGWYRQAPGKETELVAVITSSGGTYYADSVKGRFSISRDNAKNTVYLQMNSLKPEYTEVYYCNTRQQFTLTRGVFLHNYWGQGTQVTVSS | high polyreactivity
24 | QVQLVESGGGLVQAGGSLRLSCAASGRTFLVNAMGWYRQAPGKEREFVAAITSRSGRTNYADSVKGRFTISRDNAKNTVYLQSNSLKPEDTAVYYCNAEGYTVKYWYSRYDYWGQGTQVTVSS | high polyreactivity
25 | QVQLVESGGGLVQAGGSLRLSCAASGRTFLVYAMGWYRQAPGKERELVADITSGGSTDYADSVKGRFTISRDNAKNTVYLQMNSLKPEDTAVYYCATDLWRWYGWFDYWGQGTQVTVSS | low polyreactivity
26 | QVQLVESGGGLVQAGGSLRLSCAASGRTFLVYTMGWYRQAPGKERELVAAISWSDGSTYYADSEKGRFTISRDNAKNTVYLQMNSLKPEDTAVYYCAARRTGYLYRYGYWGQGTQVTVSS | low polyreactivity
27 | QVQLVESGGGLVQAGGSLRLSCAASGRTFLWNAMGWYRQAPGKERELVARINLSGGRTYYADSVKGRFTISRDNAKNTVYLQMNSLKPEDTAVYYCAATVVRYRRDSWGQGTQVTVSS | low polyreactivity
28 | QVQLVESGGGLVQAGGSLRLSCAASGRTFLYYAKGWYRQAPGKERELGAAISSGGSTNYADSVKGRFTISRDNAKNTVYLQMNSLKPEDTAVYYCNADYTSRDTSDVIYEYDYWGQGTQVTVSS | low polyreactivity
29 | QVQLVESGGGLVQAGGSLRLSCAASGRTFLYYAMGWYRQAPGKERELVAAIRRGSSTYYADSVKGRFTISRDNAKNTVYLQMNSLKPEDTAVYYCNKVYYAFRVSLYRYGYWGQGTQVTVSS | high polyreactivity
30 | QVQLVESGGGLVQAGGSLRLSCAASGRTFLYYAMGWYRQAPGKERELVAAISSGADSTYYADSVKGRFTISRDNAKNTVYLQMNSLKPEDTAVYYCAAGGSHDGVWDDYWGQGTQVTVSS | high polyreactivity
31 | QVQLVESGGGLVQAGGSLRLSCAASGRTFLYYTMGWYRQAPGTERELVATINYSGGRTYYADSVKGRFTISRDNANNTVYFQMNSLKPVATAVYFWAKSGRALWWYDYWGQGTQVTVSS | high polyreactivity
32 | QVQLVESGGGLVQAGGSLRLSCAASGRTFNAYAMGWYRLAPWKERELVAAISSGGSTYYADSVKGRFTISRDNAKNTVYLQMNSLKQEDTAVYYSNKVYGWRQFDYWGNGTQVTVSS | high polyreactivity
33 | QVQLVESGGGLVQAGGSLRLSCAASGRTFNFNTMGWYRQAPGKEREFVAAITFRGVRTYYADSVKGRFTISRDNAKNTVYLQMNSLKPEDTAVYYCAADAPRSYRFGYWGQGTQVTVSS | high polyreactivity
34 | QVQLVESGGGLVQAGGSLRLSCAASGRTFNGYALGSSRQAPGKERELVAAISGRGRSTRYADSVKGRFTISRDNAKNTVYLQMNSLNPEDTAVYYCNARGYSETQREYDSWGQGTQVTVSS | high polyreactivity
35 | QVQLVESGGGLVQAGGSLRLSCAASGRTFNKYAMGWYRQAPGKERELVAAIRDGSGGRTNYADSVKGRFTISRDNAKNTVYLQMNSLKPEDTAVYYCNADDSKYPYYTDDYWGQGTQVTVSS | low polyreactivity
36 | QVQLVESGGGLVQAGGSLRLSCAASGRTFNPNAMGWYRQAPGKERELVAAISSSGGSTYYADSVKGRFTISRDNAKNTVYLQMNSLKPEDTAVYYCAAVHKWYLYYYWGQGTQVTVSS | high polyreactivity
37 | QVQLVESGGGLVQAGGSLRLSCAASGRTFNPYTMGWYRQAPGKEREFVATIRKSSGGTYYADSVKGRFTISRDTAKNTVYLQMNSLKPEDTAVYYCAAVGNGGMDYWGQGTQVTVSS | low polyreactivity
38 | QVQLVESGGGLVQAGGSLRLSCAASGRTFNQYAMGWYRQAPGKERELVAAISRRTGRTYYADSVKGRFTISRDNAKNTVYLQMNSLKQEDTAVYYCAAGFTYLNYTPWYRFNYWGQGTQVTVSS | high polyreactivity
39 | QVQLVESGGGLVQAGGSLRLSCAASGRTFNRNAMGWYRPAPGKERELVAAISRGGGGTFYADSVKGRFTISRDNAKNTVYLQMNSLKPEDTAVYYCAVWQDHYDWGQGTQVTVSS | low polyreactivity
40 | QVQLVESGGGLVQAGGSLRLSCAASGRTFNRNAMGWYRQAPGKERELVASITSRGGSTYYADSVKGRFTISRDNAKNTVYLQMNSLKPEDTAVYYCNATPKFFGRYWGYDYWGQGTQVTVSS | high polyreactivity
41 | QVQLVESGGGLVQAGGSLRLSCAASGRTFNRYAMGWYRQAPGKERELVAAISWRGDSTYYADSVKGRFTISRDNAKNTVYLQMNSLKPEDTAVYYCAARGNFWGQGTQVTVSS | high polyreactivity
42 | QVQLVESGGGLVQAGGSLRLSCAASGRTFNRYAMGWYRQAPGKERELVAAISWSGGRTYYADSVKGRFTISRDNAKNTVYLQMNSMIPEATAVYYCAKEAYFRYDYCGQGTQVTVSS | low polyreactivity
43 | QVQLVESGGGLVQAGGSLRLSCAASGRTFNSNAMGCYRQAPGKERELVARISRGASTYYADSVKGRFTISRDNAKNTVYLQMNSLKPEDTAVYYCAKRRRSAAPKYDYWGQGTQVTVSS | high polyreactivity
